One series deals with T1, MsmTOP1-839t (D1-D7) (Mycobacterium smegmatis mc2 155, UniProt A0R5D9 1-839).
T1 sequence: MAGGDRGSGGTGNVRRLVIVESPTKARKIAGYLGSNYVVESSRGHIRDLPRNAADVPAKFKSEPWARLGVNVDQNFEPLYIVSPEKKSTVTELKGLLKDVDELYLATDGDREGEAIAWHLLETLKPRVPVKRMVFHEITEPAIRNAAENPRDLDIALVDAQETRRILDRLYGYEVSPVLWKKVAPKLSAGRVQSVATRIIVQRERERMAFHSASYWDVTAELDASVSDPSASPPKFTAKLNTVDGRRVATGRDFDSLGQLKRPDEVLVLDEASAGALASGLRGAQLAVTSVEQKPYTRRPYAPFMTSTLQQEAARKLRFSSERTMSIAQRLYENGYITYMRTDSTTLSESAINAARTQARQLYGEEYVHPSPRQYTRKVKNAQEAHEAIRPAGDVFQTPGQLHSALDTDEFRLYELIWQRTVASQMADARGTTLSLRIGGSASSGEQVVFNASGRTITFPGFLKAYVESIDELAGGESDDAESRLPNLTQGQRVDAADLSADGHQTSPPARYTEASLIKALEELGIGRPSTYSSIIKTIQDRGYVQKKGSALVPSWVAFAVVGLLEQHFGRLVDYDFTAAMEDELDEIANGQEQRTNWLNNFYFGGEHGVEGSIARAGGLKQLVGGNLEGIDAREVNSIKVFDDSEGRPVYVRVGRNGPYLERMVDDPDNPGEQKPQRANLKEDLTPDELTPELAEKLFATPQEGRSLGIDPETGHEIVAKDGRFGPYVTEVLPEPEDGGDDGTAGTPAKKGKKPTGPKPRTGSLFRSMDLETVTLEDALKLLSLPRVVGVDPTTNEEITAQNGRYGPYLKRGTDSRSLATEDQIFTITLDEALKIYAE
Nature of the series: X-ray crystallography (3.1 A); no metal ion at active site; ssDNA at both N-terminal and D6-D7 domains; Anisotropy: 50 mM Tris-HCl pH 7.5, 100 mM NaCl, 0.1 mM EDTA, room temperature; crystal: 0.1 M Tris-HCl pH 8.5, 1.5 M lithium sulfate, 16 C, protein:ssDNA 1:2. As to conditions: protein: recombinant; tags: His6-Mocr removed by TEV (N-terminal SNA left); single strand; in crystal two copies pair through 5' regions (12 bp, six non-Watson-Crick pairs/mismatches).

Series [1] has as its target T2, MsmTOP1 full length (topoisomerase I) (Mycobacterium smegmatis mc2 155, UniProt A0R5D9 1-936).
T2 sequence: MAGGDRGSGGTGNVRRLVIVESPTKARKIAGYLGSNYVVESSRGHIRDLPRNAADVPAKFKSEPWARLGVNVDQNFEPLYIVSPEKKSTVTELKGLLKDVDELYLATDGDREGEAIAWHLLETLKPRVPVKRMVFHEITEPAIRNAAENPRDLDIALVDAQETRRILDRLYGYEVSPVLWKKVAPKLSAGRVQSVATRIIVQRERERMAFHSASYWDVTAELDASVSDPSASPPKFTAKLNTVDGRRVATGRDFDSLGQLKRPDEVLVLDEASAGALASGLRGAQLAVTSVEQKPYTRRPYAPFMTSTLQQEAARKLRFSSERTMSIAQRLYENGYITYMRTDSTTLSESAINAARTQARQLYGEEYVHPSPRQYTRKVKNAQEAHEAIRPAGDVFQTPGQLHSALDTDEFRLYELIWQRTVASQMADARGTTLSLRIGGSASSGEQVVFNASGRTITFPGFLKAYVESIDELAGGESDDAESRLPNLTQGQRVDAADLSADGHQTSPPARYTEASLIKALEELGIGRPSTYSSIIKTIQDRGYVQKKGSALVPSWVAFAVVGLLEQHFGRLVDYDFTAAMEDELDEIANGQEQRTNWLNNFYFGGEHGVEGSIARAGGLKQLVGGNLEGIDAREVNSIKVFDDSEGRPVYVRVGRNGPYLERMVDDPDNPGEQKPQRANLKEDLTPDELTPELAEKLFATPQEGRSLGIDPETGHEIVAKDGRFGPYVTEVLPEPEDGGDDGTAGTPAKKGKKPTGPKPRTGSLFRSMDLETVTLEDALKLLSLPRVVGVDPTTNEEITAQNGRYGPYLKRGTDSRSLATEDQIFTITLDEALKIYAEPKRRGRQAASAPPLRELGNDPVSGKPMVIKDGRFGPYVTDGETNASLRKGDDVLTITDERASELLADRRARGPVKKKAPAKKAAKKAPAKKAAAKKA
Nature of the series: fluorescence anisotropy; Kd could not be determined; no Mg2+, 0.1 mM EDTA; Anisotropy: 50 mM Tris-HCl pH 7.5, 100 mM NaCl, 0.1 mM EDTA, room temperature; crystal: 0.1 M Tris-HCl pH 8.5, 1.5 M lithium sulfate, 16 C, protein:ssDNA 1:2. As to conditions: protein: recombinant; tags: His6-Mocr removed by TEV (N-terminal SNA left); label: 3' 6-carboxyfluorescein; single strand. (Polarisation of emitted light reports the rotation of a fluorescent probe.)

The target in series [2] is T2, MsmTOP1 full length (topoisomerase I). Nature of the series: fluorescence anisotropy; no Mg2+, 0.1 mM EDTA; Anisotropy: 50 mM Tris-HCl pH 7.5, 100 mM NaCl, 0.1 mM EDTA, room temperature; crystal: 0.1 M Tris-HCl pH 8.5, 1.5 M lithium sulfate, 16 C, protein:ssDNA 1:2. As to conditions: protein: recombinant; tags: His6-Mocr removed by TEV (N-terminal SNA left); label: 3' 6-carboxyfluorescein; single strand.

Another series has as its target T3, MsmTOP1-701t (D1-D5) (Mycobacterium smegmatis mc2 155, UniProt A0R5D9 1-701).
T3 sequence: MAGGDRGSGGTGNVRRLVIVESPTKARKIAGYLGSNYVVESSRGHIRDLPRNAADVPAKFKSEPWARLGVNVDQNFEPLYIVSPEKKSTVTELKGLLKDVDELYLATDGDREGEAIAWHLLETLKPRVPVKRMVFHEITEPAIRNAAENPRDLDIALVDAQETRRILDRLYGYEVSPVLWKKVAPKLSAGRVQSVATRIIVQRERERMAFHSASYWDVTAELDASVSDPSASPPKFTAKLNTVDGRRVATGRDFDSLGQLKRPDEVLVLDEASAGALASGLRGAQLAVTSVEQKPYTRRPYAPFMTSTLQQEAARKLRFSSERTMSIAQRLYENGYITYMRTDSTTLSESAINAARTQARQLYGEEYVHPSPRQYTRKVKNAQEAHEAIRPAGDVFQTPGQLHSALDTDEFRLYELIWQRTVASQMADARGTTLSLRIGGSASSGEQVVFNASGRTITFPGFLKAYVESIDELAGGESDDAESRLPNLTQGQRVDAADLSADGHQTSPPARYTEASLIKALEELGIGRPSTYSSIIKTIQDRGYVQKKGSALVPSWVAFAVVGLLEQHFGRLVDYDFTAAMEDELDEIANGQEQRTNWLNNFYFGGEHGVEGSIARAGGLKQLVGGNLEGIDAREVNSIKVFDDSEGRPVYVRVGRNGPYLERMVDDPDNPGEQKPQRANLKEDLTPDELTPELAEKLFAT
Described as above. As to conditions: protein: recombinant; tags: His6-Mocr removed by TEV (N-terminal SNA left); label: 3' 6-carboxyfluorescein; single strand.

This note sets out measurements from article PMC7192597, “Mechanistic insights from structure of Mycobacterium smegmatis topoisomerase I with ssDNA bound to both N- and C-terminal domains”.

B1: MTS2-25 (ssDNA)
DNA: CAGTGAGCGAGCTTCCGCTTGACTT
For B1, the binding result with MsmTOP1-839t (D1-D7) was “binds”.

B2: MTS3-14 (ssDNA)
DNA: CTTCCGCTTGACAT
For the molecule B2, the binding result in series [1] was “binds”.

B3: STS32 (ssDNA)
DNA: CAGTGAGCGAGCTTCCGCTTGACATCCCAATA
In the case of B3, the Kd (as a rule, a measure of binding affinity in units of concentration) in series [2] amounted to 0.3 nM; with MsmTOP1-701t (D1-D5), 14.9 nM.
